Where two headings read alike, the source gives them in different places.
What was measured:
[1] = biological target: T1, human melanocortin-3 receptor (hMC3-R) (human, UniProt P41968 1-323); assay: 125I-NDP-α-MSH competition, hMC3-R membranes
T1 construct: whole, on cells; membranes prepared from hMC3-R cells were used; also called Melanocortin Receptor 3
Protocol: (§1) The competitive inhibition binding assay was conducted using membranes prepared from hMC3-R, hMC4-R, hMC5-R, and B-16 mouse melanoma cells (containing MC1-R) using 0.4 nM ¹²⁵I-NDP-alpha-MSH (New England Nuclear, Boston, Mass., USA) in 50 mM HEPES buffer containing 1 mM MgCl₂, 2 mM CaCl₂, and 5 mM KCl, at pH 7.2. […] Incubation was for 90 minutes at room temperature, after which the assay mixture was filtered and the membranes washed three times with ice cold buffer. The filter was dried and counted in a gamma counter for remaining radioactivity bound to the membranes. 100% specific binding was defined as the difference in radioactivity (cpm) bound to cell membranes in the absence and presence of 1 μM α-MSH. […] Each assay was conducted in triplicate and the actual mean valves are described.
(§2) The first unnumbered peptide in Table 5 is the parent polypeptide, which is a γ-MSH analog specific for melanocortin receptors. The methods and assays set forth in Example 1 were followed.

[2] = biological target: T2, melanocortin-1 receptor (MC1-R) of B-16 mouse melanoma cells (mouse, UniProt Q01727 1-315); assay: 125I-NDP-α-MSH competition, B-16 membranes
T2 construct: whole, on cells; membranes prepared from the cells were used; also called Melanocortin Receptor 1
T2 sequence (Q01727 whole entry): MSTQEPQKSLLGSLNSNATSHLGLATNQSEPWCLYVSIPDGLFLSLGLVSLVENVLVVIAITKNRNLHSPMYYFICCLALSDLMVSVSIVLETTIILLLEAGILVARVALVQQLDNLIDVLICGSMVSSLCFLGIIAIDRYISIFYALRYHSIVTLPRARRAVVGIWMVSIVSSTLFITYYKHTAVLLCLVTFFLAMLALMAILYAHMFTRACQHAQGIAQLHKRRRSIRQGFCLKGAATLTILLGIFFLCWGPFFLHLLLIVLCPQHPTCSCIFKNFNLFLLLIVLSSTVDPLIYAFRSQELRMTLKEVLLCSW
Protocol: as §1, §2

[3] = biological target: T3, human melanocortin-5 receptor (hMC5-R) (human, UniProt P33032 1-325); assay: 125I-NDP-α-MSH competition, hMC5-R membranes
T3 construct: whole, on cells; membranes prepared from hMC5-R cells were used; also called Melanocortin Receptor 5
T3 sequence (P33032 whole entry): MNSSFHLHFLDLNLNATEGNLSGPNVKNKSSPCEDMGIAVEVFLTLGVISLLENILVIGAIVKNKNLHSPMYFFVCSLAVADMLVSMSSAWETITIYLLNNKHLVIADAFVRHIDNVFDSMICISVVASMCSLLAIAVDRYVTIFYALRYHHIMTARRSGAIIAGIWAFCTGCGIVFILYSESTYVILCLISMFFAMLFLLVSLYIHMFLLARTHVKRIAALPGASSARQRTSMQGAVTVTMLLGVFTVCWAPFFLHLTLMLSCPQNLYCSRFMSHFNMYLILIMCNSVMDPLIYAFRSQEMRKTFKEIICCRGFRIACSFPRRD
Protocol: as §1
(§3) The first unnumbered peptide in Table 3 is the parent polypeptide, which is a Nle³, D-Phe⁶ substituted γ-MSH analog specific for melanocortin receptors. The methods and assays set forth in Example 1 were followed.

[4] = biological target: T3, human melanocortin-5 receptor (hMC5-R); assay: 125I-NDP-α-MSH competition, hMC5-R membranes; remark: listed apart in the source
Protocol: as §1, §2

[5] = biological target: T4, human melanocortin-4 receptor (hMC4-R) (human, UniProt P32245 1-332); assay: 125I-NDP-α-MSH competition, hMC4-R membranes
T4 construct: whole, on cells; membranes prepared from hMC4-R cells were used; also called Melanocortin Receptor 4
T4 sequence (P32245 whole entry): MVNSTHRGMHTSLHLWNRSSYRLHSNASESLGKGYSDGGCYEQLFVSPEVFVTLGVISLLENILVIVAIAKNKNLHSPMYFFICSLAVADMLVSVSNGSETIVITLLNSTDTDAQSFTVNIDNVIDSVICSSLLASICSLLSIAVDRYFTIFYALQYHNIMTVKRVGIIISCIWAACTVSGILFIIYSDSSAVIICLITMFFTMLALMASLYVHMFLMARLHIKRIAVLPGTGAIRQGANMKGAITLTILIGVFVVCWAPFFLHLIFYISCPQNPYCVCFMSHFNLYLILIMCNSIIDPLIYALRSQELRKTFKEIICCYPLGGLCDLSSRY
Protocol: as §1, §3

[6] = biological target: T4, human melanocortin-4 receptor (hMC4-R); assay: 125I-NDP-α-MSH competition, hMC4-R membranes; remark: listed apart in the source
Protocol: as §1, §2

[7] = biological target: T2, melanocortin-1 receptor (MC1-R) of B-16 …; assay: 125I-NDP-α-MSH competition, B-16 membranes; remark: listed apart in the source
Protocol: as §1, §3

[8] = biological target: T1, human melanocortin-3 receptor (hMC3-R); assay: 125I-NDP-α-MSH competition, hMC3-R membranes; remark: listed apart in the source
Protocol: as §1, §3

T1 sequence (P41968 whole entry): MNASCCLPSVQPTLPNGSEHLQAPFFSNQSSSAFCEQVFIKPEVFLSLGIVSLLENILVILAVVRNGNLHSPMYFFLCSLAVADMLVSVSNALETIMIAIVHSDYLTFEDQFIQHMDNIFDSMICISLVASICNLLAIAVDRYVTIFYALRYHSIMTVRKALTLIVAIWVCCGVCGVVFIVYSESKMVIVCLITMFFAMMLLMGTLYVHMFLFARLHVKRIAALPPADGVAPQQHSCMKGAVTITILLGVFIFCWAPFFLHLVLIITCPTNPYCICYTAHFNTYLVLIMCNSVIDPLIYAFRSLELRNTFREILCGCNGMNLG

% Inhibition at 1 µM [1]: 100% | % Inhibition at 1 µM [2]: 99% | % Inhibition at 1 µM [3]: 100% | % Inhibition at 1 µM [4]: 100% | % Inhibition at 1 µM [5]: 99% | % Inhibition at 1 µM [6]: 99% | % Inhibition at 1 µM [7]: 99% | % Inhibition at 1 µM [8]: 100%
Binder: YVXGHFRWDRF (Nle 3 (X in letters); D-Phe 6; C-terminal amide, not complexed to Re) [[Nle3, D-Phe6]-γ-MSH parent polypeptide Tyr-Val-Nle-Gly-His-D-Phe-Arg-Trp-Asp-Arg-Phe-NH2]
